Experiments:
MEF cells = test: Osteoblast differentiation in MEF cells, alizarin red staining; type: cell-based; conditions: differentiation medium for 8 days
Protocol: Primary human mesenchymal stem cells (MSCs), C3H10T1/2, 293T and MEF cells were cultured in a DMEM to which thermally inactivated 10% FBS and penicillin (100 U/mL)/streptomycin (100 μg/mL) were added. All cell types were cultured in a humidified incubator containing CO2 5% under a temperature condition of 37° C. In order to induce osteoblast differentiation, the medium was exchanged with a DMEM in which 50 μg/mL of ascorbic acid, 10 mM of β-glycerophosphate and 10% FBS were contained for 8 days. The differentiation medium was changed once every two days.
Therefore, in order to characterize a potential role of sLZIP in the transcriptional activity of Runx2 by inhibiting the transcriptional activity of PPARγ2, the transcriptional activity of Runx2 was examined. For this purpose, 293T cells were temporarily transfected with Runx2 (0.5 μg), β-galactosidase (0.1 μg), 6 copies of Runx2 response elements (0.2 μg) and sLZIP at different contents (0.1 μg to 0.5 μg) (FIG. 7A). PPARγ2 (0.5 μg), β-galactosidase, Runx2, 6 copies of Runx2 response elements and sLZIP (0.5 μg) were expressed in the 293T cells (FIG. 7B). 293T cells were temporarily transfected with HDAC3 (0.5 μg), Runx2, β-galactosidase, 6 copies of Runx2 response elements and sLZIP at different contents (0.25 and 0.5 μg) (FIG. 7C). A promoter activity was measured by luciferase analysis. […]

ATDC5 cells = test: Chondrocyte differentiation marker mRNA in ATDC5 cells, RT-PCR and real-time PCR; type: cell-based; conditions: sLZIP 0.1 μg to 0.5 μg, in a reaction with insulin
Protocol: According to instructions of the manufacturer, a TRIzol reagent (Invitrogen, Carlsbad, Calif.) was added to directly lyse cells in a culture dish. Accupower RT PreMix (BioNeer, Daejeon, Korea) was used to synthesize cDNA from 2 μg of total RNA. A reaction was performed for 60 minutes at 42° C. and for 5 minutes at 94° C. PCR amplification was performed using oligomers listed in Table 2 and a Hipi PCR Mix Kit (ELPIS). As an internal control group, GAPDH was amplified. A PCR product was subjected to electrophoresis in 1-2% (w/v) agarose gel containing 0.5 μg/mL ethidium bromide. A size of the PCR product was measured by comparing it with 1 kb DNA ladder marker (Invitrogen). An intensity of bands amplified according to RT-PCR was analyzed using MultiImage™ Light Cabinet (version 5.5, Alpha Innotech Corp., San Leandro, Calif.).
Real-time PCR was performed in LightCycler 480 using a SYBR Green Master Mix (Roche, Mannheim, Germany). β-actin was used as an internal control group. A target gene expression level rate with respect to β-actin was calculated using CT method. A Ct value is defined as a PCR cycle number at which a fluorescence signal reaches a fixed target threshold. Experiments were technically repeated three times for each experiment. […]

B1: sLZIP: human small leucine-zipper protein, isoform of LZIP, 354 amino acids, no transmembrane domain, GenBank FJ263669, SEQ ID NO: 1 (protein, listed as Homo sapiens)
chain: MELELDAGDQDLLAFLLEESGDLGTAPDEAVRAPLDWALPLSEVPSDWEVDDLLCSLLSPPASLNILSSSNPCLVHHDHTYSLPRETVSMDLESESCRKEGTQMTPQHMEELAEQEIARLVLTDEEKSLLEKEGLILPETLPLTKTEEQILKRVRRKIRNKRSAQESRRKKKVYVGGLESRVLKYTAQNMELQNKVQLLEEQNLSLLDQLRKLQAMVIEISNKTSSSSMYSSDTRGSLPAEHGVLSRQLRALPSEDPYQLELPALQSEVPKDSTHQWLDGSDCVLQAPGNTSCLLHYMPQAPSAEPPLEWPFPDLFSEPLCRGPILPLQANLTRKGGWLPTGSPSVILQDRYSG
MEF cells
  osteoblast differentiation and bone nodule formation: promoted osteoblast differentiation and bone nodule formation
ATDC5 cells
  expression of chondrocyte differentiation marker genes (Sox9, ColIIIA1): no influence

— US10456446B2, “Use of human small leucine zipper protein in osteogenesis procedure” (Korea University Research and Business Foundation, priority 2013, dated 2019)
